From paper PMC6461989

B1: recombinant HAI-2 (rHAI-2) proteins containing the extracellular region of HAI-2 (domain or fragment)
chain: ADRERSIHDFCLVSKVVGRCRASMPRWWYNVTDGSCQLFVYGGCDGNSNNYLTKEECLKKCATVTENATGDLATSRNAADSSVPSAPRRQDSEDHSSDMFNYEEYCTANAVTGPCRASFPRWYFDVERNSCNNFIYGGCRGNKNSYRSEEACMLRCFRQQENPPLPLGSK
B2: α-2-antiplasmin (natural protein)
chain: NQEQVSPLTLLKLGNQEPGGQTALKSPPGVCSRDPTPEQTHRLARAMMAFTADLFSLVAQTSTCPNLILSPLSVALALSHLALGAQNHTLQRLQQVLHAGSGPCLPHLLSRLCQDLGPGAFRLAARMYLQKGFPIKEDFLEQSEQLFGAKPVSLTGKQEDDLANINQWVKEATEGKIQEFLSGLPEDTVLLLLNAIHFQGFWRNKFDPSLTQRDSFHLDEQFTVPVEMMQARTYPLRWFLLEQPEIQVAHFPFKNNMSFVVLVPTHFEWNVSQVLANLSWDTLHPPLVWERPTKVRLPKLYLKHQMDLVATLSQLGLQELFQAPDLRGISEQSLVVSGVQHQSTLELSEVGVEAAAATSIAMSRMSLSSFSVNRPFLFFIFEDTTGLPLFVGSVRNPNPSAPRELKEQQDSPGNKDFLQSLKGFPRGDKLFGPDLKLVPPMEEDYPQFGSPK

Target: human active plasmin (human)
Sequence (P00747 20-580, chain 1 of 2): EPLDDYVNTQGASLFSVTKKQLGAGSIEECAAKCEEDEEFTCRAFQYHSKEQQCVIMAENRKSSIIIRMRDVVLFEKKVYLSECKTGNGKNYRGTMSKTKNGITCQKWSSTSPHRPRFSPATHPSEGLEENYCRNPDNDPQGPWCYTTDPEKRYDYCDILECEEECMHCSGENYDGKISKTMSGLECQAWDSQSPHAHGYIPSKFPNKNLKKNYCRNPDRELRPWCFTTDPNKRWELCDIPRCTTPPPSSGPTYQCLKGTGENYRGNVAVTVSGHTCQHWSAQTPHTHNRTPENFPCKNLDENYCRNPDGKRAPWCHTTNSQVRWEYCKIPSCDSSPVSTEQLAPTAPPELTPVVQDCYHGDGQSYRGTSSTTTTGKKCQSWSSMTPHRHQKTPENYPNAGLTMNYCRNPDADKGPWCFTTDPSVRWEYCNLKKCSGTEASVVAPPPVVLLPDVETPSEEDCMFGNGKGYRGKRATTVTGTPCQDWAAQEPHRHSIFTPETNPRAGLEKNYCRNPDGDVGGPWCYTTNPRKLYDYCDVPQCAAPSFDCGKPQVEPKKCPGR
Sequence (P00747 581-810, chain 2 of 2): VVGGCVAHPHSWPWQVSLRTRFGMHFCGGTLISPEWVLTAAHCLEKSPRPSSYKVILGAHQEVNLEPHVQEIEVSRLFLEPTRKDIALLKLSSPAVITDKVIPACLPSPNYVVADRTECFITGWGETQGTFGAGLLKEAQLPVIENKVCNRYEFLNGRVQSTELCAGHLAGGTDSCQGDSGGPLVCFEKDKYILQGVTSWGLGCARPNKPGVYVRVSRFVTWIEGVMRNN

Row | inhibition of plasmin activity in the presence of equimolar uPA and plasminogen, ratio of HAI-2 to uPA/plasminogen 1:1 (~20% inhibition) to 10:1 (Supplementary Figure S13A) | inhibition of plasmin activity, high ratio of HAI-2 to plasmin (Supplementary Figure S13B) | inhibition of plasmin activity, low ratio (~40%) to high ratio of α-2-antiplasmin to plasmin (Supplementary Figure S13B) | Binder
1 | 75% | 66% |  | B1
2 |  |  | > 99% | B2
